{
  "source": "paper PMC12565409",
  "about": "“Computational–Experimental Identification of Palindromic Motifs Bound by Bacterial XRE Family Transcriptional Regulators”",
  "binders": {"B1": {"name": "Mot38-WT (dsDNA)", "DNA 1": "AATAAATCGGCACAATCGTGCCGATTTTGG", "DNA 2": "CCAAAATCGGCACGATTGTGCCGATTTATT"}},
  "target": "Motif_38 protein HW450_07255 (UniProt A0A7G5FC37 1-70)",
  "assay": "EMSA; EMSA: 20 mM Tris-HCl pH 7.5, 250 mM NaCl, 5% glycerol; 2 uL of 1 uM FAM-DNA (labeled:unlabeled strand 1:4) + 2 uL of ~10 uM protein in 20 uL; 37 C, 30 min",
  "conditions": "protein: recombinant; tags: His (pET-28a, Ni column); label: 5'FAM on strand 1; blunt",
  "data": [
    {"binder": "B1", "values": [
      {"measurement": "binding result", "result": "binds"}
    ]}
  ]
}
